Experimental findings from the supplement of paper PMC9112550, “Optimization of the antimicrobial peptide Bac7 by deep mutational scanning” (BMC Biology, 2022) are described below.
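Further: peptides expressed intracellularly from a pBAD plasmid library in pooled LB shake-flask culture, induced with 0.3% L-arabinose, DNA abundance read by NGS, three biological replicates, DESeq2 with apeglm shrinkage.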

The data set deals with Escherichia coli TOP10. Nature of the data set: shrunken log2 fold change of peptide-encoding DNA abundance (4.5 h post-induction vs induction); higher = less antimicrobial activity (less host growth inhibition). The settings on record: time post-induction: 4.5 h; library: site-saturation at positions 5, 18, 19, 20.
Consider RRIRCRPPRLPRPRPRPLGGPRP, for which the “shrunken log2 fold change” value is 0.281.
Consider RRIRPRPPRLPRPRPRPSLAPRP, for which the “shrunken log2 fold change” value came to 0.185.
As for RRIRWRPPRLPRPRPRPCMMPRP, the figure is -0.229; as for RRIRVRPPRLPRPRPRPYILPRP, -0.278.
Consider RRIRKRPPRLPRPRPRPQHLPRP, for which the “shrunken log2 fold change” value is 0.0344.
Next, RRIRKRPPRLPRPRPRPHSNPRP: 0.095.
Consider RRIRFRPPRLPRPRPRPFVYPRP, for which the “shrunken log2 fold change” value is -0.413.
Consider RRIRCRPPRLPRPRPRPPWIPRP, for which the “shrunken log2 fold change” value was -0.209.
In the case of RRIRLRPPRLPRPRPRPLEQPRP, the “shrunken log2 fold change” value came to 0.0155.
With RRIRARPPRLPRPRPRPDFWPRP, the “shrunken log2 fold change” value came to 0.289.
As to RRIRERPPRLPRPRPRPVQRPRP, the “shrunken log2 fold change” value is 0.0476.
With RRIRVRPPRLPRPRPRPGKLPRP, the “shrunken log2 fold change” value was determined as 0.126.
Next, RRIRQRPPRLPRPRPRPTEDPRP: 0.0148; RRIRIRPPRLPRPRPRPHDNPRP: -0.53.
On to RRIRARPPRLPRPRPRPEQNPRP, for which the “shrunken log2 fold change” value came to 0.928.
As to RRIRWRPPRLPRPRPRPMNPPRP, the “shrunken log2 fold change” value is -0.153.
RRIRFRPPRLPRPRPRPYSYPRP: the “shrunken log2 fold change” value was -0.268.
For the sequence RRIRLRPPRLPRPRPRPFHEPRP, the “shrunken log2 fold change” value was -0.101.
As for RRIRARPPRLPRPRPRPRSPPRP, the figure is 0.871.
As for RRIRYRPPRLPRPRPRPSRAPRP, the “shrunken log2 fold change” value is -0.113.
Regarding RRIRIRPPRLPRPRPRPQCRPRP, the “shrunken log2 fold change” value was -0.0364.
In the case of RRIRDRPPRLPRPRPRPLDCPRP, the “shrunken log2 fold change” value is 0.118.
On to RRIRLRPPRLPRPRPRPPLYPRP, for which the “shrunken log2 fold change” value is 1.61.
On to RRIRCRPPRLPRPRPRPLVPPRP, for which the “shrunken log2 fold change” value is -0.202.
In the case of RRIRNRPPRLPRPRPRPWNFPRP, the “shrunken log2 fold change” value was -0.0018.
Turning to RRIRFRPPRLPRPRPRPCCMPRP, the “shrunken log2 fold change” value was -0.579.
Regarding RRIRFRPPRLPRPRPRPDVFPRP, the “shrunken log2 fold change” value was -0.119.
As for RRIRDRPPRLPRPRPRPHCSPRP, the figure is 0.0218; as for RRIRERPPRLPRPRPRPYIMPRP, -0.542.
Take RRIRMRPPRLPRPRPRPESNPRP: the “shrunken log2 fold change” value is 0.102.
In the case of RRIRKRPPRLPRPRPRPGGVPRP, the “shrunken log2 fold change” value was 0.656.
With RRIRSRPPRLPRPRPRPVRMPRP, the “shrunken log2 fold change” value was determined as 0.0776.
As for RRIRMRPPRLPRPRPRPMDRPRP, the “shrunken log2 fold change” value was -0.0181.
For the sequence RRIRMRPPRLPRPRPRPYNDPRP, the “shrunken log2 fold change” value was determined as 0.0185.
Turning to RRIRERPPRLPRPRPRPSHGPRP, the “shrunken log2 fold change” value is -0.263.
In the case of RRIRSRPPRLPRPRPRPPRSPRP, the “shrunken log2 fold change” value turned out to be 0.483.
For the sequence RRIRPRPPRLPRPRPRPKYDPRP, the “shrunken log2 fold change” value is -0.612.
Turning to RRIRFRPPRLPRPRPRPHGAPRP, the “shrunken log2 fold change” value was determined as 0.109.
Regarding RRIRIRPPRLPRPRPRPPEQPRP, the “shrunken log2 fold change” value was determined as 0.118.
As for RRIRFRPPRLPRPRPRPEAWPRP, the figure is 0.00383.
Take RRIRKRPPRLPRPRPRPFARPRP: the “shrunken log2 fold change” value amounted to 0.187.
In the case of RRIRKRPPRLPRPRPRPDNIPRP, the “shrunken log2 fold change” value was -0.0306.
With RRIRTRPPRLPRPRPRPSQYPRP, the “shrunken log2 fold change” value was -0.142.
In the case of RRIRQRPPRLPRPRPRPMGTPRP, the “shrunken log2 fold change” value is -0.00257.
RRIRCRPPRLPRPRPRPHFAPRP: the “shrunken log2 fold change” value was found to be 0.0672.
With RRIRWRPPRLPRPRPRPEMHPRP, the “shrunken log2 fold change” value worked out at 0.952.
As for RRIRGRPPRLPRPRPRPDSGPRP, the “shrunken log2 fold change” value was 0.128.
Regarding RRIRIRPPRLPRPRPRPYLLPRP, the “shrunken log2 fold change” value was -1.52.
As for RRIRIRPPRLPRPRPRPLMGPRP, the “shrunken log2 fold change” value is -0.166.
Regarding RRIRVRPPRLPRPRPRPHYSPRP, the “shrunken log2 fold change” value was -0.424.
Consider RRIRGRPPRLPRPRPRPKQDPRP, for which the “shrunken log2 fold change” value was 0.881.
Consider RRIRERPPRLPRPRPRPMRTPRP, for which the “shrunken log2 fold change” value worked out at 0.0487.
Next, RRIRWRPPRLPRPRPRPFNIPRP: -0.715; RRIRIRPPRLPRPRPRPKNTPRP: -0.695; RRIRTRPPRLPRPRPRPSDHPRP: -0.274.
Take RRIRARPPRLPRPRPRPHRHPRP: the “shrunken log2 fold change” value is -0.0481.
On to RRIRIRPPRLPRPRPRPEVHPRP, for which the “shrunken log2 fold change” value is -0.102.
As for RRIRHRPPRLPRPRPRPFICPRP, the “shrunken log2 fold change” value came out at 0.00486.
On to RRIRGRPPRLPRPRPRPIDIPRP, for which the “shrunken log2 fold change” value is -0.0347.
On to RRIRSRPPRLPRPRPRPELRPRP, for which the “shrunken log2 fold change” value is 0.382.
As for RRIRERPPRLPRPRPRPYVEPRP, the figure is -0.534.
Take RRIRCRPPRLPRPRPRPYFKPRP: the “shrunken log2 fold change” value was -0.931.
On to RRIRLRPPRLPRPRPRPKDLPRP, for which the “shrunken log2 fold change” value was -0.242.
As for RRIRDRPPRLPRPRPRPKVEPRP, the figure is 0.109; as for RRIRWRPPRLPRPRPRPHGEPRP, 0.135; as for RRIRVRPPRLPRPRPRPRGNPRP, 0.378.
RRIRIRPPRLPRPRPRPFDLPRP: the “shrunken log2 fold change” value is -0.348.
As for RRIRHRPPRLPRPRPRPYNCPRP, the “shrunken log2 fold change” value is -0.00726.
Turning to RRIRERPPRLPRPRPRPQCNPRP, the “shrunken log2 fold change” value was 0.117.
For RRIRNRPPRLPRPRPRPSLLPRP, the “shrunken log2 fold change” value is -0.19.
RRIRQRPPRLPRPRPRPWFDPRP: the “shrunken log2 fold change” value is -0.253.
Regarding RRIRMRPPRLPRPRPRPRRVPRP, the “shrunken log2 fold change” value was 1.3.
For the sequence RRIRRRPPRLPRPRPRPEEGPRP, the “shrunken log2 fold change” value came out at 0.00715.
As for RRIRVRPPRLPRPRPRPKNDPRP, the figure is 0.011; as for RRIRHRPPRLPRPRPRPDEYPRP, -0.00149; as for RRIRRRPPRLPRPRPRPNQVPRP, 0.12.
Consider RRIRFRPPRLPRPRPRPMHEPRP, for which the “shrunken log2 fold change” value is 0.085.
On to RRIRMRPPRLPRPRPRPHYEPRP, for which the “shrunken log2 fold change” value is -0.0284.
As for RRIRERPPRLPRPRPRPQCTPRP, the “shrunken log2 fold change” value is -0.012.
In the case of RRIRGRPPRLPRPRPRPDGFPRP, the “shrunken log2 fold change” value turned out to be 0.171.
For the sequence RRIRKRPPRLPRPRPRPPMWPRP, the “shrunken log2 fold change” value came out at 0.297.
Consider RRIRQRPPRLPRPRPRPVGCPRP, for which the “shrunken log2 fold change” value came out at 0.23.
Take RRIRFRPPRLPRPRPRPNCVPRP: the “shrunken log2 fold change” value was -0.321.
Regarding RRIRCRPPRLPRPRPRPFAFPRP, the “shrunken log2 fold change” value was -0.169.
As for RRIRFRPPRLPRPRPRPMFQPRP, the “shrunken log2 fold change” value was -0.336.
For the sequence RRIRKRPPRLPRPRPRPWPEPRP, the “shrunken log2 fold change” value came to 0.0451.
RRIRCRPPRLPRPRPRPWGGPRP: the “shrunken log2 fold change” value came to 0.36.
Regarding RRIRYRPPRLPRPRPRPELHPRP, the “shrunken log2 fold change” value was -0.143.
As to RRIRCRPPRLPRPRPRPSMNPRP, the “shrunken log2 fold change” value is -0.757.
As for RRIRHRPPRLPRPRPRPSLFPRP, the figure is -0.625; as for RRIRRRPPRLPRPRPRPARQPRP, -0.0115.
Regarding RRIRKRPPRLPRPRPRPTGFPRP, the “shrunken log2 fold change” value was 0.0653.
For RRIRNRPPRLPRPRPRPFDFPRP, the “shrunken log2 fold change” value was -0.161.
Take RRIRCRPPRLPRPRPRPLFMPRP: the “shrunken log2 fold change” value was -0.368.
RRIRCRPPRLPRPRPRPYGQPRP: the “shrunken log2 fold change” value is -1.33.
As for RRIRFRPPRLPRPRPRPYKHPRP, the “shrunken log2 fold change” value is -0.911.
Turning to RRIRTRPPRLPRPRPRPFFLPRP, the “shrunken log2 fold change” value was -0.299.
For RRIRSRPPRLPRPRPRPRIMPRP, the “shrunken log2 fold change” value is -0.105.
On to RRIRDRPPRLPRPRPRPACVPRP, for which the “shrunken log2 fold change” value was 0.337.
Regarding RRIRWRPPRLPRPRPRPGWMPRP, the “shrunken log2 fold change” value is 0.366.
On to RRIRCRPPRLPRPRPRPEPEPRP, for which the “shrunken log2 fold change” value was determined as 0.706.
For RRIRCRPPRLPRPRPRPRKFPRP, the “shrunken log2 fold change” value was -0.00353.
In the case of RRIRGRPPRLPRPRPRPWNQPRP, the “shrunken log2 fold change” value was -0.139.
Regarding RRIRQRPPRLPRPRPRPALPPRP, the “shrunken log2 fold change” value was found to be 0.397.
Consider RRIRKRPPRLPRPRPRPPNPPRP, for which the “shrunken log2 fold change” value came to 0.657.
For the sequence RRIRYRPPRLPRPRPRPSHEPRP, the “shrunken log2 fold change” value is -0.0704.
Consider RRIRERPPRLPRPRPRPWFWPRP, for which the “shrunken log2 fold change” value turned out to be 0.061.
Next, RRIRPRPPRLPRPRPRPVCDPRP: 0.333; RRIRERPPRLPRPRPRPIILPRP: -0.136.
In the case of RRIRKRPPRLPRPRPRPAQNPRP, the “shrunken log2 fold change” value amounted to 0.943.
As for RRIRLRPPRLPRPRPRPDNGPRP, the “shrunken log2 fold change” value was -0.0567.
Regarding RRIRIRPPRLPRPRPRPKYYPRP, the “shrunken log2 fold change” value is -0.632.
For the sequence RRIRFRPPRLPRPRPRPKDPPRP, the “shrunken log2 fold change” value came out at 0.216.
As for RRIRLRPPRLPRPRPRPREFPRP, the “shrunken log2 fold change” value is 0.463.
As to RRIRKRPPRLPRPRPRPIIEPRP, the “shrunken log2 fold change” value was -0.0922.
Turning to RRIRMRPPRLPRPRPRPFDLPRP, the “shrunken log2 fold change” value came out at 0.16.
Turning to RRIRARPPRLPRPRPRPYDDPRP, the “shrunken log2 fold change” value was found to be 0.192.
For the sequence RRIRKRPPRLPRPRPRPMKYPRP, the “shrunken log2 fold change” value is -0.152.
Next, RRIRCRPPRLPRPRPRPQAVPRP: -0.154.
As for RRIRNRPPRLPRPRPRPNFHPRP, the “shrunken log2 fold change” value was -0.048.
Consider RRIRIRPPRLPRPRPRPKSDPRP, for which the “shrunken log2 fold change” value is -0.222.
For RRIRCRPPRLPRPRPRPILMPRP, the “shrunken log2 fold change” value was -0.796.
Regarding RRIRRRPPRLPRPRPRPPGWPRP, the “shrunken log2 fold change” value was -0.0607.
Next, RRIRCRPPRLPRPRPRPAVEPRP: -0.0939; RRIRARPPRLPRPRPRPCSVPRP: 0.0736.
